This note sets out measurements from US20180306791A1 (GlaxoSmithKline, published 2018).

Assay [1] addresses T1, BCMA (human, UniProt Q02223 1-184).
T1 construct: whole, on cells; Endogenous on human cell lines and patient cells, or from plasmid pCDNA3.1 hBCMA in ARH-77 cells; also called CD269; TNFRSF17
T1 sequence (looked up): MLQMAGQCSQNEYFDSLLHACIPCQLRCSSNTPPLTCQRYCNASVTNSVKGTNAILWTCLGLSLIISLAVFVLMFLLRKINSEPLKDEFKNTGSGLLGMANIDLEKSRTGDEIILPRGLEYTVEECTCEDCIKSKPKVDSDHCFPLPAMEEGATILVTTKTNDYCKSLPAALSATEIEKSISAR
The assay can be described thus: flow cytometry, CD138+ gated bone marrow cells of patient GSK050 (group MODERATE); ratio of MFI to IgG2a-488 control.

In assay [2] the target is T1, BCMA. The assay can be described thus: flow cytometry on H929 cells (sheet group HIGH); ratio of MFI of BCMA stained to isotype IgG2a-488 stained cells.
The target in assay [3] is T1, BCMA. The assay can be described thus: flow cytometry on KMM1 cells (sheet group NEGATIVE, text: low BCMA expression); ratio of MFI to isotype IgG2a-488; reflects the low level of the target on these cells.
Assay [4] addresses T1, BCMA. The assay can be described thus: flow cytometry on JJN3 cells (printed JIN3 on the sheet; group MODERATE); ratio of MFI to isotype IgG2a-488.
Assay [5] deals with T1, BCMA. The assay can be described thus: flow cytometry, CD138+ gated bone marrow cells of patient GSK064 (group LOW); ratio of MFI to IgG2a-488 control.
Assay [6] addresses T1, BCMA. The assay can be described thus: flow cytometry on Daudi cells (non-MM line; group LOW); ratio of MFI to isotype IgG2a-488.
For assay [7], the target named is T1, BCMA. The assay can be described thus: flow cytometry inset, non-transduced (NT) ARH77 cells with negligible surface BCMA; ratio to isotype control.
Assay [8] addresses T1, BCMA. The assay can be described thus: flow cytometry on SUPT1 cells (non-MM line, sheet group NEGATIVE for BCMA); ratio of MFI to isotype IgG2a-488; reflects absence of the target on these cells.
In assay [9] the target is T1, BCMA. The assay can be described thus: flow cytometry on OPM2 cells (sheet group MODERATE); ratio of MFI to isotype IgG2a-488.
Assay [10] concerns the target T1, BCMA. The assay can be described thus: flow cytometry on JIM3 cells (sheet group MODERATE); ratio of MFI to isotype IgG2a-488.
Assay [11] addresses T1, BCMA. The assay can be described thus: flow cytometry, CD138+ gated bone marrow cells of patient GSK034 (group MODERATE); ratio of MFI to IgG2a-488 control.
In assay [12] the target is T1, BCMA. The assay can be described thus: flow cytometry on Raji cells (non-MM line, sheet group NEGATIVE for BCMA); ratio of MFI to isotype IgG2a-488; reflects absence of the target on these cells.
In assay [13] the target is T1, BCMA. The assay can be described thus: flow cytometry, CD138+ gated bone marrow cells of patient GSK045 (group MODERATE); ratio of MFI to IgG2a-488 control.
In assay [14] the target is T1, BCMA. The assay can be described thus: flow cytometry, CD138+ gated bone marrow cells of patient GSK039 (group HIGH); ratio of MFI to IgG2a-488 control.
For assay [15], the target named is T1, BCMA. The assay can be described thus: flow cytometry inset, low BCMA-transduced (LOW) ARH77 cells; ratio to isotype control.
Assay [16] concerns the target T1, BCMA. The assay can be described thus: flow cytometry, CD138+ gated bone marrow cells of patient GSK048 (group HIGH); ratio of MFI to IgG2a-488 control.
For assay [17], the target named is T1, BCMA. The assay can be described thus: flow cytometry, CD138+ gated bone marrow cells of patient GSK072 (group LOW); ratio of MFI to IgG2a-488 control.
For assay [18], the target named is T1, BCMA. The assay can be described thus: flow cytometry on RPMI8226 cells (printed RPM18226; group LOW); ratio of MFI to isotype IgG2a-488.
In assay [19] the target is T1, BCMA. The assay can be described thus: flow cytometry on U266 cells (sheet group MODERATE); ratio of MFI to isotype IgG2a-488.
The target of assay [20] is T1, BCMA. The assay can be described thus: flow cytometry on MM1.s cells (sheet group MODERATE); ratio of MFI to isotype IgG2a-488.
For assay [21], the target named is T1, BCMA. The assay can be described thus: flow cytometry inset, high BCMA-transduced (HIGH) ARH77 cells; ratio to isotype control.
Assay [22] has as its target T1, BCMA. The assay can be described thus: flow cytometry of CD138+ cells of patient GSK087; number in the title of panel IV. On the procedure: (§1) FIG. 14: J6M0-MMAF activity on primary CD138+ cells. (A) BM MNCs from one representative patient (GSK 087) with moderate BCMA expression incubated with J6M0-MMAF. Viable CD138+ cells (percentage of control) after 2 and 6 days (left panel) obtained by analyzing CD138+ cells by flow cytometry and gating CD138+ fraction (middle panel) onto AnnexinV/PI dot-plot (right panel). (B) Four representative experiments showing viable CD138+ cells after culture of BM MNCs from myeloma patients with concentrations of J6M0-MMAF at varying time points. For each patient, histogram showing binding of J6M0-wtFc PE to CD138+ cells (black) compared to cells pre-incubated with Fc block as control (white) and where available IHC staining with MIB1 (pink, nuclear) and CD138 (membrane, brown) as a measure of plasma cell proliferation.
(§2) For assessment of surface BCMA expression, murine anti-BCMA (clone 5307118G03, conjugated to AlexaFluor488), and the humanised antibody, J6M0-wtFc conjugated to PE were used in parallel. In the case of primary MM cells, staining was carried out on bone marrow (BM) mononuclear cells (MNCs) in 100μl PBS (Lonza)/0.5% BSA(PAA), using anti CD138 APC (Miltenyi), to identify tumour cells. […] A semi-quantitative measure of BCMA surface expression on MM cells was obtained from the ratio of the MFI of anti BCMA, versus isotype control stained samples (MFI ratio).

Assay [23] has as its target T1, BCMA. The assay can be described thus: flow cytometry of CD138+ cells of patient GSK048; number in the title of panel II. On the procedure:
as §1, §2

The target of assay [24] is T1, BCMA. The assay can be described thus: flow cytometry of CD138+ cells of patient GSK085; number in the title of panel III. On the procedure: as §1, §2

B1: S307118G03 (antibody, from another filing, mouse IgG2a, V domains shown)
VH: EVQLQQSGPELVKPGASVKISCKASGYTFTDYYMKWVKQSHGKSLEWIGEIYPNNGGITYNQKFKGKATLTVDKSSSTAYMELRSLTSEDSAVYYCANGYEFVYWGQGTLVTVSA
VL: DIQMTQTASSLSASLGDRVTISCSASQGISNYLNWYQQKPDGTVKLLIYYTSSLHSGVPSRFSGSGSGTDYSLTISNLEPEDIATYYCQQYSKLPWTFGGGTKLEIKR
Take B1: the MFIr worked out at 6 in assay [1]; 15.3 in [2]; 1.1 in assay [3]; 4.6 in [4]; 2.5 in assay [5]; 2.9 in assay [6]. The MFIr was found to be 1.8 in assay [7]; 1 in assay [8]; 4.5 in [9]; 5.7 in assay [10]; 4.8 in [11]; 1.2 in [12]. Also, the MFIr in [13] came to 3.8; in assay [14] it was 11.2; in assay [15], 16.6; in assay [16], 11.2; in [17] it was 2; in [18], 2. In addition, the values for the MFIr in assay [19], in [20] and in assay [21] were 5.8, 6.8 and 54.8, respectively.

B2: J6M0-wtFc (antibody, IgG1, V domains shown)
VH: QVQLVQSGAEVKKPGSSVKVSCKASGGTFSNYWMHWVRQAPGQGLEWMGATYRGHSDTYYNQKFKGRVTITADKSTSTAYMELSSLRSEDTAVYYCARGAIYDGYDVLDNWGQGTLVTVSS
VL: DIQMTQSPSSLSASVGDRVTITCSASQDISNYLNWYQQKPGKAPKLLIYYTSNLHSGVPSRFSGSGSGTDFTLTISSLQPEDFATYYCQQYRKLPWTFGQGTKLEIKR
notes: PE-conjugated for flow cytometry; no sentence says it outright; also called J6M0-wtFc PE; wild type Fc form of J6M0
In the case of B2, the figures for the MFI ratio in assay [22], in assay [23] and in assay [24] were 7, 16.7 and 3.65, respectively.
